Assay results reported in US11472877 (Alector, dated 2022).

T1: human TREM2 on BWZ cells (human, UniProt Q9NZC2 19-230)
T1 construct: whole, on cells; not tied to the cell line; also called BWZ Human TREM2
T1 sequence (looked up): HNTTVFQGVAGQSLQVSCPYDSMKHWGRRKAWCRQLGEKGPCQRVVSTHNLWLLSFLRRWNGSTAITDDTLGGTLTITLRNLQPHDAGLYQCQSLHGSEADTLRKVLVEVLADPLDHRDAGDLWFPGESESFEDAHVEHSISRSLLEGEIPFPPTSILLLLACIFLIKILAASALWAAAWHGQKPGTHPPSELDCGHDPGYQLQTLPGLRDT

T2: mouse TREM2 on BWZ cells (mouse, UniProt Q99NH8 19-227)
T2 construct: whole, on cells; also called BWZ Mouse TREM2
T2 sequence (looked up): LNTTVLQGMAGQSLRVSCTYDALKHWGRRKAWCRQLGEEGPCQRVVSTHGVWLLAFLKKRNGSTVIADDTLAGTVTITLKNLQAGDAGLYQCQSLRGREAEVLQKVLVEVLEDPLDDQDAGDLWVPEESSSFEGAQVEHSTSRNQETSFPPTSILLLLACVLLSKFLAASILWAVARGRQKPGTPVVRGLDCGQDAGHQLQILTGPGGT

T3: mouse TREM1 on CHO cells (mouse, UniProt Q9JKE2 21-230)
T3 construct: also called CHO-mT1
T3 sequence: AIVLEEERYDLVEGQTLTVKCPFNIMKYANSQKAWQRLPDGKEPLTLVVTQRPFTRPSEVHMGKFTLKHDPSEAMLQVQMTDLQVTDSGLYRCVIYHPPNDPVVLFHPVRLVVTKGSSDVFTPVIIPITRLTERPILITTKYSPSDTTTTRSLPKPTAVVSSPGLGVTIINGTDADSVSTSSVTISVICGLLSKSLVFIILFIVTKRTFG


Columns and labels:
[1] = target: T1, human TREM2 on BWZ cells; assay: FACS, BWZ cells
[2] = target: T2, mouse TREM2 on BWZ cells; assay: FACS, BWZ cells
[3] = target: T1, human TREM2 on BWZ cells; assay: FACS, BWZ human TREM2
[4] = target: T2, mouse TREM2 on BWZ cells; assay: FACS, BWZ mouse TREM2
[5] = target: T3, mouse TREM1 on CHO cells; assay: FACS, CHO mouse TREM1

| binding result [1] | binding result [2] | FOB Fold Over Background [3] [fold] | FOB Fold Over Background [4] [fold] | FOB Fold Over Background [5] [fold] | Binder |
| --- | --- | --- | --- | --- | --- |
| no binding | no binding | 1 | 0.9 | 1.2 | T1-80 (antibody, IgG1, V domains shown, huIgG1; also called TI-80; ADI-19159) VH: QVQLVESGGGVVQPGRSLRLSCAASGFTFSSYGMHWVRQAPGKGLEWVALIWYDGSNKYYADSVKGRFTISRDNSKNTLYLQMNSLRAEDTAVYYCARELIVGATGGLTYYYGMDVWGQGTTVTVSS VL: EIVMTQSPATLSVSPGERATLSCRASQSVGSNLAWYQQKPGQAPRLLIYGASTRATGIPARFSGSGSGTEFTLTISSLQSEDFAVYYCQQDHDRPLTFGGGTKVEIK |
| no binding | no binding | 0.7 | 1.2 | 401 | T1-29 (antibody, IgG1, V domains shown, huIgG1; also called TI-29) VH: QLQLQESGPGLVKPSETLSLTCTVSGGSISSSSYYWGWIRQPPGKGLEWIGSIYYSGSTYYNPSLKSRVTISVDTSKNQFSLKLSSVTAADTAVYYCARDGGGTAQADGAYYYGMDVWGQGTTVTVSS VL: EIVLTQSPATLSLSPGERATLSCRASQSVSSYLAWYQQKPGQAPRLLIYDASNRATGIPARFSGSGSGTDFTLTISSLEPEDFAVYYCQQGVNYPFTFGGGTKVEIK |
| no binding | no binding | 1.1 | 1.2 | 3.1 | T1-54 (antibody, IgG1, V domains shown, huIgG1; also called TI-54; ADI-19129) VH: QVQLVQSGAEVKKPGSSVKVSCKASGGTFSSYAISWVRQAPGQGLEWMGGIIPIFGTANYAQKFQGRVTITADESTSTAYMELSSLRSEDTAVYYCARHWYALGSFDIWGQGTMVTVSS VL: EIVMTQSPATLSLSPGERATLSCRASQSVSSYLAWYQQKPGQAPRLLIYDSSNRATGIPARFSGSGSGTDFTLTISSLEPEDFAVYYCQQHDVWPITFGGGTKVEIK |

The next lines start with the binder.

| Binder | binding result [1] | binding result [2] | FOB Fold Over Background [3] [fold] | FOB Fold Over Background [4] [fold] | FOB Fold Over Background [5] [fold] |
| --- | --- | --- | --- | --- | --- |
| T1-30 (antibody, IgG1, V domains shown, huIgG1; also called TI-30) VH: QLQLQESGPGLVKPSETLSLTCTVSGGSISSSSYYWGWIRQPPGKGLEWIGSIYYSGSTYYNPSLKSRVTISVDTSKNQFSLKLSSVTAADTAVYYCARGRKAAAGIDEAEYFQHWGQGTLVTVSS VL: DIQMTQSPSSVSASVGDRVTITCRASQGISSWLAWYQQKPGKAPKLLIYAASSLQSGVPSRFSGSGSGTDFTLTISSLQPEDFATYYCQQVISFPTFGGGTKVEIK | no binding | no binding | 0.5 | 0.8 | 453 |
| T1-27 (antibody, IgG1, V domains shown, huIgG1; also called TI-27) VH: QVQLQESGPGLVKPSQTLSLTCTVSGGSISSGGYYWSWIRQHPGKGLEWIGYIYYSGSTYYNPSLKSRVTISVDTSKNQFSLKLSSVTAADTAVYYCARDSSIAGRATLSFDYWGQGTLVTVSS VL: DIQMTQSPSSLSASVGDRVTITCRASQSISSYLNWYQQKPGKAPKLLIYAASSLQSGVPSRFSGSGSGTDFTLTISSLQPEDFATYYCQQSFYDPITFGGGTKVEIK | no binding | no binding | 0.8 | 1.2 | 523 |
| T1-32 (antibody, IgG1, V domains shown, huIgG1; also called TI-32) VH: QLQLQESGPGLVKPSETLSLTCTVSGGSISSSSYYWGWIRQPPGKGLEWIGSIYYSGSTYYNPSLKSRVTISVDTSKNQFSLKLSSVTAADTAVYYCARDAPAVVGESPAFDIWGQGTMVTVSS VL: DIQMTQSPSSLSASVGDRVTITCRASQSISRYLNWYQQKPGKAPKLLIYAASSLQSGVPSRFSGSGSGTDFTLTISSLQPEDFATYYCQQSLDLPFTFGGGTKVEIK | no binding | no binding | 0.9 | 1.2 | 380 |
| T1-31 (antibody, IgG1, V domains shown, huIgG1; also called TI-31) VH: QLQLQESGPGLVKPSETLSLTCTVSGGSISSSSYYWGWIRQPPGKGLEWIGSIYYSGSTYYNPSLKSRVTISVDTSKNQFSLKLSSVTAADTAVYYCARDRRMWDPYGMDVWGQGTTVTVSS VL: DIQMTQSPSSLSASVGDRVTITCQASQDISNYLNWYQQKPGKAPKLLIYDASNLETGVPSRFSGSGSGTDFTFTISSLQPEDIATYYCQQYDDFPPITFGGGTKVEIK | no binding | no binding | 0.5 | 0.9 | 447 |
| T1-28 (antibody, IgG1, V domains shown, huIgG1; also called TI-28) VH: EVQLVESGGGLVKPGGSLRLSCAASGFTFSSYSMNWVRQAPGKGLEWVSSISSSSNYIYYADSVKGRFTISRDNAKNSLYLQMNSLRAEDTAVYYCARGPSQYYYDSSAIEAFDIWGQGTMVTVSS VL: EIVLTQSPATLSVSPGERATLSCRASQSVGSNLAWYQQKPGQAPRLLIYGASTRATGIPARFSGSGSGTEFTLTISSLQSEDFAVYYCQQYLYFPLTFGGGTKVEIK | no binding | no binding | 0.6 | 1.1 | 408 |
